The values below are quoted from earlier work in paper PMC2805756.

This series concerns the target His107 (UniProt position 107, SSGMIHLLVQV). As to the kind of experiment: kinetics. To be noted: free wild-type enzyme (thiolate-imidazolium ion pair).

Usually pKa stands for the negative logarithm of the acid dissociation constant. Take “Arylamine N-acetyltransferase 2 (hamster NAT2), wild type (Mesocricetus auratus (the article says only 'hamster'))”: the pKa is reported as above 9.5.
